Experimental findings from article PMC12562343, “Modular Virus-like Particles for Antigen Presentation: Comparing Genetic Fusion and Click-Chemistry for Purification” (International Journal of Molecular Sciences, 2025) are described below.

Data set [1] addresses HBc-pAzF (HBc ending at Val149 with p-azidophenylalanine in place of Ala80) (Hepatitis B virus genotype D, serotype ayw) (UniProt P03146). Nature of the data set: SEC; analytical HPLC-SEC of urea-dissociated samples: purified HBc VLPs after incubation with 4 M urea, and AEX eluates in 2 M urea; capsid to dimers.
Data set [2] deals with the molecule itself. The data set is described as above.

In general, stoichiometry N refers to a count of units in the complex or per binding partner. Turning to “HBc-pAzF (HBc ending at Val149 with p-azidophenylalanine in place of Ala80) (from UniProt P03146 1-149) (domain or fragment)”, the stoichiometry N in data set [1] was 2.

B1: truncated Hepatitis B core antigen (HBc) ending at Val149 (domain or fragment)
chain: MDIDPYKEFGATVELLSFLPSDFFPSVRDLLDTASALYREALESPEHCSPHHTALRQAILCWGELMTLATWVGVNLEDPASRDLVVSYVNTNMGLKFRQLLWFHISCLTFGRETVIEYLVSFGVWIRTPPAYRPPNAPILSTLPETTVV
notes: Hepatitis B core antigen (capsid protein), HBV genotype D, serotype ayw, truncated variant ending at Val149; Forms dimers that assemble into VLPs; no tag is mentioned; also called HBc149; unmodified HBc; source: E. coli BL21(DE3), purified (AMS precipitation, AEX native or under dissociating conditions, HIC)
For the molecule B1, the “stoichiometry N” value in data set [2] worked out at 2.
